Measurements from paper PMC2898303 (The Journal of Biological Chemistry, 2010).

T1: Nab2-N (residues 1–105 of Nab2), untagged (S. cerevisiae, UniProt P32505 1-105)
T1 sequence (looked up): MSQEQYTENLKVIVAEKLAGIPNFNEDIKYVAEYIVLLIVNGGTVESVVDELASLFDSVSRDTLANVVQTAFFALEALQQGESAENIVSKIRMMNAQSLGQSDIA

T2: His6-S-Tag-Gfd1 wild type (S. cerevisiae, UniProt Q04839 1-188)
T2 sequence (looked up): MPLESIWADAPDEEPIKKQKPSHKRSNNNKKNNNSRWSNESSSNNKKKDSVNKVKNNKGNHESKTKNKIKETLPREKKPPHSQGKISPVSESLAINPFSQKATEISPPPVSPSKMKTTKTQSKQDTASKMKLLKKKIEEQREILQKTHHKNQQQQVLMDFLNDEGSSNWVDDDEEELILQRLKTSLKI


Key:
[1] = molecular target: T1, Nab2-N (residues 1–105 of Nab2), …; test: crystal structure
[2] = molecular target: T2, His6-S-Tag-Gfd1 wild type; test: pull-down

Row | binding result [1] | binding result [2] | Binder
1 | binds |  | SKQDTASKMKLLKKKIEEQREILQKTHHKN (peptide, UniProt Q04839 122-151, looked up) [Gfd1 122–151 (fragment of Gfd1 released from GST-TEV-Gfd1 122–151 by TEV protease)]
2 |  | binds | GST-Nab2-N-WT (residues 1–97) (domain or fragment, S. cerevisiae, UniProt P32505 1-97, looked up) MSQEQYTENLKVIVAEKLAGIPNFNEDIKYVAEYIVLLIVNGGTVESVVDELASLFDSVSRDTLANVVQTAFFALEALQQGESAENIVSKIRMMNAQ
3 |  | binds | GST-Nab2-N-L55W (residues 1–97) (domain or fragment, S. cerevisiae, UniProt P32505 1-97, looked up) MSQEQYTENLKVIVAEKLAGIPNFNEDIKYVAEYIVLLIVNGGTVESVVDELASWFDSVSRDTLANVVQTAFFALEALQQGESAENIVSKIRMMNAQ
4 |  | binds | GST-Nab2-N-F56D (residues 1–97) (domain or fragment, S. cerevisiae, UniProt P32505 1-97, looked up) MSQEQYTENLKVIVAEKLAGIPNFNEDIKYVAEYIVLLIVNGGTVESVVDELASLDDSVSRDTLANVVQTAFFALEALQQGESAENIVSKIRMMNAQ
